# According to patent US20240076389A1 (NATIONAL RESEARCH COUNCIL OF CANADA, published 2024):
# T1: recombinant human AXL extracellular domain, C-terminally His8-tagged (rhAXL-ECD) (human, UniProt P30530 26-451)
# T1 construct: Made in CHO cells; also called (rh)AXL-ECD His8; human AXL ECD
# T1 sequence: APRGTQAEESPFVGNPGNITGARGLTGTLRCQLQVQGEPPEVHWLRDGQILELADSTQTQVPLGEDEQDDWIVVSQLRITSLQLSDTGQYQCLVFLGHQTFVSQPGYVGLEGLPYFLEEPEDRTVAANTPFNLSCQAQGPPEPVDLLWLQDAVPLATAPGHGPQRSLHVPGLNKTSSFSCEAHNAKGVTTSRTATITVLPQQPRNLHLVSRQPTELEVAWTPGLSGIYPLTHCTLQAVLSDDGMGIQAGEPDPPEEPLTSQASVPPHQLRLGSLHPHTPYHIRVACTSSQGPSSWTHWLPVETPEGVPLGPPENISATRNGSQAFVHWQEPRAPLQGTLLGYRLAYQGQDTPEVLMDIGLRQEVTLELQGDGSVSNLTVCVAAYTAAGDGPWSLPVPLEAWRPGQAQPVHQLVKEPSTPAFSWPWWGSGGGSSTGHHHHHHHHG
# T2: rhMER-ECD (human, UniProt Q12866 21-505)
# T2 construct: extracellular domain
# T2 sequence (looked up): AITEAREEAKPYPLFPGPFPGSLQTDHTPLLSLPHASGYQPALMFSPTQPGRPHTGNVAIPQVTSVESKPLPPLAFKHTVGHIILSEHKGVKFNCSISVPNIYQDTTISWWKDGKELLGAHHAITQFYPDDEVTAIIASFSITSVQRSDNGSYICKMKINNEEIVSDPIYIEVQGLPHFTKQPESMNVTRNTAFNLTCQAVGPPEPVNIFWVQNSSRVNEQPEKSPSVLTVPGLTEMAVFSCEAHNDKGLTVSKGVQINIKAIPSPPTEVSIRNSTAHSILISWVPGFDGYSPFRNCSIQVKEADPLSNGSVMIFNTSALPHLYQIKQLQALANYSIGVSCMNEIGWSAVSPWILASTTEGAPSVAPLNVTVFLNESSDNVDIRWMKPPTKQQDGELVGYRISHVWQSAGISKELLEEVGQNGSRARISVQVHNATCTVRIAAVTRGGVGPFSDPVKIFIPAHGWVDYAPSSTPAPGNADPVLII
# T3: rhTyro-3 (human, UniProt Q06418 41-429)
# T3 construct: extracellular domain
# T3 sequence (looked up): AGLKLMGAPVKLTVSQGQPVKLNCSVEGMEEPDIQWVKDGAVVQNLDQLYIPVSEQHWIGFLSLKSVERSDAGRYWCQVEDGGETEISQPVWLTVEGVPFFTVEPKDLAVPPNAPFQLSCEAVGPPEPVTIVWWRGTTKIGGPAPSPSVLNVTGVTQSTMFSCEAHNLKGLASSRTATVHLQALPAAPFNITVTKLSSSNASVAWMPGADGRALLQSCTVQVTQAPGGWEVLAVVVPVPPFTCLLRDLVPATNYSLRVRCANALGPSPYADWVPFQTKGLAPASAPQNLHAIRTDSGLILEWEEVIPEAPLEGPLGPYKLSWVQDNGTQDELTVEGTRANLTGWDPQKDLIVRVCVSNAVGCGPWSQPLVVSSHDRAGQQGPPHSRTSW
# T4: AXL fragment # 6 (AXL amino acids 26-226, IgL1+IgL2)
# T4 chain: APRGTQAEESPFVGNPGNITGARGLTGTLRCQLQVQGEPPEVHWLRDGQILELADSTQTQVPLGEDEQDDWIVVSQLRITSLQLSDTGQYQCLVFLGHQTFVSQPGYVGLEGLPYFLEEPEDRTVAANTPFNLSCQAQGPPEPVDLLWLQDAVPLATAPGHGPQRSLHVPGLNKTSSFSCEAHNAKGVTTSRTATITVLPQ
# T5: AXL fragment # 3 (AXL amino acids 26-138, IgL1)
# T5 chain: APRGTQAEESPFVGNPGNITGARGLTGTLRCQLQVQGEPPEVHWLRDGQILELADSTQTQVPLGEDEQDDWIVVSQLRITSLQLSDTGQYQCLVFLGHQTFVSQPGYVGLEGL
# Experiments:
# [1] = molecular target: T1, recombinant human AXL extracellular …; assay: ELISA, antigen coated at 5 µg/ml, mAb 10 µg/ml
# Protocol: (§1) To evaluate the cross-reactivity of the mAb to other members of the TAM receptor tyrosine kinase subfamily, binding of the mAb to rhAXL-ECD, rhMER-ECD, rhTyro-3 and BSA (negative control) was measured by ELISA. 96-w half-area plates (Costar) were coated with 25 μl of rhAXL-ECD, rhMER-ECD, rhTyro-3 or BSA at 5 μg/ml in PBS and incubated overnight at 4° C. Microplates were washed 3 times with PBS, blocked with PBS-BSA 1%, and 25 μl of a 10 μg/ml diluted in PBS-BSA 1% were added and incubated at 37° C., 5% CO₂ for 2 hours. Plates were washed 4 times with PBS-TWEEN™ 20 0.05% and incubated for one hour at 37° C., 5% CO₂ with 25 μl of secondary antibody alkaline phosphatase conjugated F(ab)′2 goat anti-mouse IgG (H+L) (Jackson Immunoresearch) diluted 1/5000 in blocking buffer. After 4 washes with PBS-Tween 20 0.05%, 25 μl of a 1 mg/ml pN PP substrate solution was added and further incubated for one hour at 37° C. OD405 nm measurements were done using a microplate reader (Spectramax 340 PC, Molecular Devices).
# rhMER-ECD = molecular target: T2, rhMER-ECD; assay: ELISA, antigen coated at 5 µg/ml, mAb 10 µg/ml
# Protocol: as §1
# rhTyro-3 = molecular target: T3, rhTyro-3; assay: ELISA, antigen coated at 5 µg/ml, mAb 10 µg/ml
# Protocol: as §1
# BSA = molecular target: T6, BSA (UniProt P02769 25-607); assay: ELISA, antigen coated at 5 µg/ml, mAb 10 µg/ml
# T6 construct: also called BSA (negative control)
# T6 sequence (P02769 25-607 limits assumed): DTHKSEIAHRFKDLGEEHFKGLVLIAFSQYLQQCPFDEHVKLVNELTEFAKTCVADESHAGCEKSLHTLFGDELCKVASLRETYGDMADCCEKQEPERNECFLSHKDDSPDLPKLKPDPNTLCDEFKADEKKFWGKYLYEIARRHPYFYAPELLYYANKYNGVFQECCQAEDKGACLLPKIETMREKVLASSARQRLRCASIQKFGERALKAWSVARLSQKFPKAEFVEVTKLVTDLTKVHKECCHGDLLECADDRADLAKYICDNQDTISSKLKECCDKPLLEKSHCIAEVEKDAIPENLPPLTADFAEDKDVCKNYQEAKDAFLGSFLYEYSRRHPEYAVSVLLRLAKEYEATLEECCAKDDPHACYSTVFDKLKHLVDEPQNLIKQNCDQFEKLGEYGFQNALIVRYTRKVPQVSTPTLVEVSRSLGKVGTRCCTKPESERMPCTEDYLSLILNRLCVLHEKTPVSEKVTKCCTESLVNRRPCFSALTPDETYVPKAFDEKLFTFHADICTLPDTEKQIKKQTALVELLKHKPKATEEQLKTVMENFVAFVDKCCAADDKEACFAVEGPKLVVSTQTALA
# Protocol: as §1
# [2] = molecular target: T4, AXL fragment # 6 (AXL amino acids …); assay: yeast surface display of hAXL fragments (Aga2-HA-(hAXL)-MYC), whole yeast cell ELISA, signal normalised to anti-MYC
# Description: (§2) Epitope mapping. […] The YSD vector (pPNL6) was from The Pacific Northwest National Laboratory, USA.
# [3] = molecular target: T7, AXL fragment # 9 (AXL amino acids 26-429, IgL1+IgL2+FN III-1+FN III-2); assay: as above
# T7 construct: not shown: Yeast display carrier and tags (Aga2p, HA, MYC and any linkers)
# Description: as §2
# [4] = molecular target: T5, AXL fragment # 3 (AXL amino acids …); assay: as above
# Description: as §2
OD405 nm [1],OD405 nm (rhMER-ECD),OD405 nm (rhTyro-3),OD405 nm (BSA),binding result [2],binding result [3],binding result [4],Binder
2.3 OD405,0 OD405,0 OD405,0 OD405,binds,binds,–,"F111-3C8 (antibody, V domains shown, also called F111-3C8-2) VH: QVQLQQPGAELGKPGTSVKLSCKASGYTFTSYWMHWVKRVPGQGLEWIGNINPNSTSADYNEKFKRKATLTVDKSSSTAYMQLSTLTSEDSAVYYCTRPLMGPYWYFDVWGTGTTVTVSS VL: QIVLTQSPAIMSASPGEKVTISCSASSSVSYMYWYQQKPGSSPKPWIYRTSNLASGVPARFSGSGSGTSYSLTISSMEAEDAATYYCQQYHNYPPTFGGGTKLEIK"
1.36 OD405,0 OD405,0 OD405,0 OD405,binds,binds,–,"F111-5E9 (antibody, V domains shown, also called F111-5E9-2; mAb 5E9) VH: QIQLVQSGPELKKPGETVKISCKASGYTFTKYGMNWVKQAPGKGLKWMGWINTYTGEPTYADDFKGRFAFSLETSASTAYLQINNLTTEDMVTYFCAKGGYYSNPIYPMDYWGQGTSVTVSS VL: DIQMTQTTSSLSASLGDRVTISCRASQDINNYLNWYQQKPDGTVKLLIYYISRLHSGVPSRFSGSGSGTDYSLTISNLELEDVATYFCQQGNTLPFTFGSGTKLEIK"
1.76 OD405,0 OD405,0 OD405,0 OD405,binds,binds,binds,"F107-10G1 (antibody, V domains shown, also called F107-10G1-3) VH: EVNLVESGGGVVKPGASLKLSCEASGFTFSNYGMSWVRQTSDKRLEWVASISGGGGRTYYLDNVKGRFIISRENAKNTLYLQMSSLKSEDTALFYCARGARASYFAMDYWGQGSSVTVSS VL: VIVMTQSHKFMSTSVGDRVSITCKASQDVTTAVAWYQQKPGQSPKLLIYWASTRHTGVPDRFTGSGSGTDYSLTISNVQTEDLAFYYCQQHFTTPLTFGAGTKLELK"
2.59 OD405,0 OD405,0 OD405,0 OD405,binds,binds,binds,"F107-8D12 (antibody, V domains shown, also called F107-8D12-2; mAb 8D12) VH: QVQLQQPGAELVKPGASVQLSCKASGYTFISFWINWVKQRPGQGLEWMGNIFPGSSSTNYNEKFKSKATLTVDKSSSTAYMQLSSLTSEDSAVYFCARDYYGGSPDYWGQGTTLTVSS VL: DIVMSQSPSSLAVSAGERVTMSCKSSQSLLNTRTRKNYLAWYQQKPGQSPKLLIYWASTRESGVPDRFTGSGSGTDFTLTISSVQAEDLAVYYCKQSYNLWTFGGGTKLEIK"
2.4 OD405,0 OD405,0 OD405,0 OD405,binds,binds,binds,"F107-7H5 (antibody, V domains shown, also called F107-7H5-2; mAb 7H5) VH: QVQLQQPGAELVKPGASVKLSCKASGYTFTSYWINWVKQRPGQGLEWIGNIYPDSSSTNYNEKFKSKATLTVDKSSTTAYIQFSSLTSEDSAVYYCTRDTYGGSPDYWGQGTTLTVSS VL: DIVMSQSPSSLAVSAGEKVTMSCKSSQSLLNSRTRKIYLAWYQQKPGQSPKLLIYWASTRQSGVPDRFTGSGSGTDFTLTISSVQAEDLAVYYCKQSYNLWTFGGGTKLEIK"
